Molecular target: CD16V-BB-ζ chimeric receptor (human)
Assay: cell-based or functional assay

With hu14.18K322A (antibody) the 24-hour cytotoxicity against NB1691 cells at 1:8 E:T was greater than 50%.
